Laboratory results as given in the DeepSol protein solubility set.

assay: soluble on expression in E. coli; label from the status in PepcDB or PDB records

| Sequence | soluble on expression in E. coli |
| --- | --- |
| MNLDQAEITALTKRFETPFYLYDGDFIEAHYRQLRSRTNPAIQFYLSLKANNNIHLAKLFRQWGLGVEVASAGELALARHAGFSAENIIFSGPGKKRSELEIAVQSGIYCIIAESVEELFYIEELAEKENKTARVAIRINPDKSFGSTAIKMGGVPRQFGMDESMLDAVMDAVRSLQFTKFIGIHVYTGTQNLNTDSIIESMKYTVDLGRNIYERYGIVCECINLGGGFGVPYFSHEKALDIGKITRTVSDYVQEARDTRFPQTTFIIESGRYLLAQAAVYVTEVLYRKASKGEVFVIVDGGMHHHAASTFRGRSMRSNYPMEYIPVREDSGRRELEKVTIAGPLCTPEDCLGKDVHVPALYPGDLVCVLNSGAYGLSFSPVHFLGHPTPIEILKRNGSYELIRRKGTADDIVATQLQTESNLLFVDK | soluble |
| MNLDQELAEIRASSSDHTNYFYSSERREHMFDKVLTPSDVGKLNRLVIPKQHAENFFPLEDNQNGTVLDFQDKNGKMWRFRYSYWNSSQSYVMTKGWSRFVKEKKLFAGDTVSFYRGYIPDDNAQPERRRKIMFIDWRPRAEINFVHNINNHNFVFGSPTYPTARFYPVTPEYSMPYRSFPPFYQNQFQEREYLGYGYGRVVNGNGVRYYAGSPLDQHHQWNLGRSEPLVYDSVPVFPAGRVPPSAPPQPSTTKKLRLFGVDVEESSSSGDTRGEMGVAGYSSSSPVVIRDDDQSFWRSPRGEMASSSSAMQLSDDEEYKRKGKSLEL | soluble |
| MNLIGKWIVGVGESVLNRMPLVRPIYKSIKQLFESVLKEHSNSFKKVGLIEFPSSGTWAMVFVSSEVKGELAHRFNEMGQQMVAVFLPPTPVPTAGFLLFVPKDKIVMLDMTPEDAAKLLISGGLVAPDFTPPKVIAPVLEHHHHHH | soluble |
| MNLLEKTRKINAMLQKAAGRPVNFKEMAETLCEVIEANVFVVSRRGKLLGFAIKQSIENERMKRMLEERQFPEEYTKNLFNITETSPNIDINSEYTAFPVENRDLFKTGLTTIVPINGGGERLGTLILSRLDREFDNDDLILAEYGATVVGMEILREKAEEIEEEARSKAVVQMAISSLSYSELEAIEHIFEELDGTEGLLVASKIADRVGITRSVIVNALRKLESAGVIESRSLGMKGTYIKVLNDKFLSELEKLKSS | not soluble |
| MNLLLFFLLSTVSVFAVVSGTVEETARDVIDALAHAPFEEWSSVFIETNDRIRAEVIPSTLFIPNSSANGSDDRHKLASYHIVPQRLEFADLLLKPSRSRLPTLLNGSSILVTNNSATSFSIDGVLIIELDIYVDSFIAIHRIAYPLDYTTYGGGSKLISKWPLFTFMLVTVVWFI | soluble |
| MNLNYTIASQVNPHVVPFMQSDASRYRKDILSWPQRILRRQGKVISLGIMDFTRERLGNVPPVRRLLDHGYGIVGQRYYGDVNIIAPFNLRQYAYMLQNPRPHLFKLLQQQGERATLEHHHHHH | soluble |
| MNLSIFGLKNIPYLKEGDSIEKLIEESIKTSEFFIEDNDVLCIASKVVSIAEGQVMSLNEIQVSDVAKEIHRNIPRKDPRIIEIMLNLVNRDLSRLDIKKNYIGCRLENGLKLTSGGIDRKSVDEVFLLPNNPDASAKRISEYLKKSLGKNVAVVITDSDGREDKRGATQVAIGIYGIHPLRKTEVIDSQGETIKFQEETLCDMIAACAGLVMGQRGTGIPAVLIRGLDYKWSENTSIKEALNE | not soluble |
| MNMLKKSLTALVLLGGLGAPVVAHATPAAAEAASEVQVAWVDGKVRISWTEAAGIPNTVSLELPGKPRKTLGTTTAAGDNQLVVEPSALEPTNDPASVAKIVVSDPSTAEARSAGFDRYVRGATPLAPVMTGTGVLNWQFPADTAVDSTPNDPLDVDAPVQFVPKLTLGVTPGTTDECKTVVLPATTAPYGSVPKQISPYALELLNVSEWGQSKLAGVRVRSSSTAFSTPASTGYGTRITMTGSILLQTLQNPAAGNCEDVTDTAALGGHELALQAREDGGAWYAVGVSKTDAQGKYQFVVSNPGARQYRAVLKTAAASGAAHYQSISAERSVRATPQVIDASFADDTITLGQQPNARVTVAPYGSHQVALQFKNASGQWQGLMYRTLSAGRAESGPFAFSRLGDTQFRWWVASSTSTTGLPVDAGYTYPFTLHVS | not soluble |
| MNNLMVIDGIEVRRDAYGRYSLNDLHRAAGSLDKHKPAFWLRNEQTERLISELQICNSVNIEPVNVIRGGNNQGTYVCKELVYAYAMWISPSFHLKVIRTFDMV | not soluble |
| MNNNDIEYNAPSEIKYIDVVNTYDLEEEASKVVPHGGFNYIAGASGDEWTKRANDRAWKHKLLYPRLAQDVEAPDTSTEILGHKIKAPFIMAPIAAHGLAHTTKEAGTARAVSEFGTIMSISAYSGATFEEISEGLNGGPRWFQIYMAKDDQQNRDILDEAKSDGATAIILTADSTVSGNRDRDVKNKFVYPFGMPIVQRYLRGTAEGMSLNNIYGASKQKISPRDIEEIAGHSGLPVFVKGIQHPEDADMAIKRGASGIWVSNHGARQLYEAPGSFDTLPAIAERVNKRVPIVFDSGVRRGEHVAKALASGADVVALGRPVLFGLALGGWQGAYSVLDYFQKDLTRVMQLTGSQNVEDLKGLDLFDNPYGYEY | soluble |
| MNNQYLQFVREQLIIATADLSGATKGQLEAWQENAMFDTGRYRRKKIRYRDEVTGKMITRDNPPIPGKQSLAKGTSIPLVSPVEFSTSSWRRAVLSLEEHYKAWLLWCYSGSICWEYQIAITQWAWNEFNAQSGTRKIAGKTQERLKKLIWLAAQAVKAELFGGEGYEYQELALLAGVTTKNWSKTFTRHWVAMKHIFHRLDSEALLFVMRTRSKKRRHFQSKVLQK | not soluble |
| MNNSLIVRQLGLQDYQEIWHKMQDFTDTRNAETQDEIWLVQHYPVFTQGQAGKPEHLLQRSEIPVVQSVRGGQITYHAPGQQVMYVLIDIKRHKNLNVRQLVTALEQTVVKTLAEYGIESYPKPDAPGVYVDGKKICSLGLRIRRGCSFHGLALNINMDLNPFHYINPCGYAGLEMCQLADFVNQDKADCDNVSAKLIKHFANLLGYNITTLLEHHHHHH | soluble |
| MNNSNLAAARNLIQVVTGEWKSRCVYVATRLGLADLIESGIDSDETLAAAVGSDAERIHRLMRLLVAFEIFQGDTRDGYANTPTSHLLRDVEGSFRDMVLFYGEEFHAAWTPACEALLSGTPGFELAFGEDFYSYLKRCPDAGRRFLLAMKASNLAFHEIPRLLDFRGRSFVDVGGGSGELTKAILQAEPSARGVMLDREGSLGVARDNLSSLLAGERVSLVGGDMLQEVPSNGDIYLLSRIIGDLDEAASLRLLGNCREAMAGDGRVVVIERTISASEPSPMSVLWDVHLFMACAGRHRTTEEVVDLLGRGGFAVERIVDLPMETRMIVAARA | soluble |
| MNNVEKAIEALKKGEIILVYDSDEREGETDMVVASQFITPEHIRIMRKDAGGLICTALHPDICNKLGIPFMVDILEFASQKFKVLRELYPNDIPYDEKSSFSITINHRKTFTGITDNDRAFTIKKLAELVKEGRFNDFGKEFRSPGSVTLLRAAEGLVKNRQGHTEMTVALAELANLVPITTICEMMGDDGNAMSKNETKRYAEKHNLIYLSGEEIINYYLDKYLKD | soluble |
| MNPLKAGDIAPKFSLPDQDGEQVNLTDFQGQRVLVYFYPKAMTPGCTVQACGLRDNMDELKKAGVDVLGISTDKPEKLSRFAEKELLNFTLLSDEDHQVCEQFGVWGEKSFMGKTYDGIHRISFLIDADGKIEHVFDDFKTSNHHDVVLNWLKEHA | soluble |
| MNQKPTPLMSPPPPAQQNGKDHKEKLHRIEDIMYSDADTFPEFSNRDGSRETVDTCWQLVLIRVPEHPNETHIKTINDAITSEMKATWKIPATSFAYVSAPHIPILQLAYGVAKKHFGEKTAIRSSFMFAEPKNDKFLIAKDSDLKHLKYEVILGASRFCWTKVETHAEMSKRIESTLFELMRVLPNLVLFLGPLAFDVLYETLEMQKRKTIAKPGVVIENFKRENNKWKRVQKHGATSISVPLC | not soluble |
| MNQLLINKHEKFFNRCLIGLPSTAQSEDSNKLAIIYFCLHGLQLIQKFQFTNQELIYYRNFIINQFMIENNQIISFRSTHYFQKTNQKYDCPNLSSTLFALYNLLILKSPYHTIINRKKIMNFLCKCQVKDGINKGGFVPTLYYNEENGDYKQYGEPDLRVCYMALLIRHLMKYDDNNNNNNREDSNETDIDLISLQQFILDRININGGFSSTIMDESHLGFTFCAIASLKLLNYPLEKLKSTKEWLIHRQVDYPENLYPKDGNGDGNGNGDNYEYYRNIDIGGFNGRENKLSDTCYSWWCTGSLYNIDVNFIKLVDLNKAEDYLLNKTQNQLFGGFGRDPDSTPDPMHSYLALASLSLWNHEKFALQEINPILTITKESYQFFKEEIKY | soluble |
